Laboratory results reported in PMC3159460.

T1: Sso7c4 (Saccharolobus (Sulfolobus) solfataricus …, UniProt P81552 2-56)
T1 sequence: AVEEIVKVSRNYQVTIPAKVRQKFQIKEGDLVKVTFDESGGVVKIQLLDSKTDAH

B1: 16-mer duplex (NMR) (dsDNA)
DNA 1: CGCGTACGCGTACGCGTA
DNA 2: TACGCGTACGCGTACGCG
B2: 8-mer duplex (SPR, biotinylated) (dsDNA)
DNA 1: CGCTATAGCG
DNA 2: CGCTATAGCG
B3: 16-mer duplex (SPR, biotinylated) (dsDNA)
DNA 1: CGCGTACGCGTACGCG
DNA 2: CGCGTACGCGTACGCG
B4: 12-mer duplex (dsDNA)
DNA 1: CAATCCGGATTG
DNA 2: CAATCCGGATTG

Columns and labels:
Sso7c4 [1] = target: T1, Sso7c4; test: NMR 1H-15N HSQC titration
Sso7c4 [2] = target: T1, Sso7c4; test: SPR
Sso7c4 [3] = target: T1, Sso7c4; test: NMR 1D 1H titration of DNA

| Binder | Kd (Sso7c4 [2]) [µM] | other results |
| --- | --- | --- |
| B1 | – | binding result (Sso7c4 [1]): binds |
| B2 | 10.1 | – |
| B3 | 1.54 | – |
| B4 | – | binding result (Sso7c4 [3]): binds |
